Measurements published in the supplement of paper PMC9170038.

System: K4 kissing-loop RNA reporter
Test: apparent KD of K4 kissing-loop reporter; higher = weaker reporter binding
Conditions: Eterna round: R107
Protocol: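 RNA-MaP round R107: designed RNA switches with theophylline, tryptophan, arginine or FMN aptamers are transcribed on-chip within common flanks. They are titrated with a labelled K4 kissing-loop RNA reporter in RNA-MaP buffer (100 mM Tris pH 7.5, 80 mM KCl, 4 mM MgCl2), without ligand or with the indicated ligand. Median apparent KD per design.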

[1] = input ligand: theophylline 20 uM
[2] = input ligand: tryptophan 2.4 mM
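Also: bound reporter read as fluorescence of individual clusters on recovered sequencing chips by microscopy, with normalized cluster intensities fitted with a binding model.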

Sequence	apparent KD of K4 kissing-loop reporter (input ligand: FMN 200 uM) [nM]	apparent KD of K4 kissing-loop reporter (input ligand: arginine 13.2 mM) [nM]	apparent KD of K4 kissing-loop reporter (input ligand: none) [nM]	apparent KD of K4 kissing-loop reporter [1] [nM]	apparent KD of K4 kissing-loop reporter [2] [nM]
AGCGCCUAAGCCGAUACCAGAAACGCGGUGCGUCGCACGAUUAACUAGGAAAGUGAUGUUUUCCCUUGGCAGCGGGACCUGUGAG [theeternabot_exclusion_KL_Theo_B_11]	119	116	134	133	135
AGCGCUGCCUGAGGAUAUAGAAACGAGUGAUGUUCGUGGAUUGAUACCAGUGAUGUUGGCCUAUUUCUAGAAGGCAGGCGAUCGU [Exclusion FMN B GF2]	172	97.1	136	88.2	114
AGGAUCCGUCGACAAAAGUCGACAUAAGCCAAGGAUAUGACGAAAGUCAGAAGGUGGUCAUAAGACCAGUGAUGUUGGUGGAUCC [FmnA 13 #SwitchBubble #K4Late]	909	279	526	309	457
AGGUACAAAAGUACCGCUAGAUCCACGGAAGGAGCGCGCGAAAGCGCAGGUAGGUCGCCGGGCAGUGAUGUUGCCGGAUCUAGCA [Omei KL Arginine A SS A v7]	134	138	126	165	144
AGGUUUUGAUUAGGAUAUGCACUGAGGAGGAGAAUAUAGUGAUGUUAUAUAAGAGGAAUUAGUAGAGUAGAAGGGAUUGAGGUUU [SSFMNB.T]	248	167	131	124	196
AGUAAUGAGUGAUGUUCAAGUAGUAAGGAUACCAGUAAUUCAAAAUGCCCUUGGCAGCUUAGCGCUACCAAUAGAUGGGUAGUGG [Theophilline A V3 (+6G)]	243	250	286	297	160
AGUACAAUGGCGGCCGCCACUCAAUGGCAGAUCAAAGAUCUGCAUCACUCAGUGAUGUUGAGUGAGAGGACCGGGCCUUUGUACA [Omei KL Tryp B SS B v7]	564	517	563	505	157
AGUACAAUUGCGGCCGCCACUCAACGCAGAUCAAAGAUCUGCAUUCACUCAGUGAUGUUGAGUGAGAGGACCGGGCAUUUGUACA [Omei KL Tryp B SS B v2]	676	481	548	512	164
AGUGCACUGUCAGGAUAUAUACAGUGAUGUUGUGUAUGUCGGCAAGUCAAAGACUUGCCAUUCUGUGUAGAAGGGACUGUGUACA [#04 K4 FMN B Exclusion]	544	203	222	202	223
AGUGUUAGGUUAGAUACCAGCCGUCUGUGGAUAAUCCACAGACCGCCAGUGAUGUUGGCAGGCCCUUGGCAGCUAACAGGACAGA [Riedingeus]	239	215	220	153	208
AGUUCUUGCCGAAGGAGCGAGGCAGAGUGAUGUUCUGCAAAGAGGUCGAAAGACCUCCUGCCUCAGGUAGGUCGCGGCAUGAACA [Omei KL Arginine B Exc A v5]	814	942	652	509	1260
AUACAGCGAAGCGCUAGUGAUGUUAGCGAAGGAGCGACUCAGGAGUCAGGUAGGUCGCGCUAAACAGGUUACGAGAGUAACCAGU [Arg A Ex t1]	142	120	140	137	113
AUAUCUGAUAGCAGUGAUGUUGCUUCAGAUACCAGACGAGAUCAUGUCCCUUGGCAGCUGACACGGCACGUGCUAGGUUAGAUGA [Theo A Ex t2]	101	92.6	101	103	101
AUAUUACUAUACGAUACCAGCCCUAACACUAGUGACGCGGUAAUAGUGAUGUUGUAACCCGGCCCUUGGCAGCGUAAUCAUGGAA [theeternabot_sameState_KL_Theo_B_7]	529	395	519	524	475
AUCAGUGUCUCACGCUACGACAUAUACGAUACCAGUCACCCUGAUGACCCUUGGCAGCGUCAACGAGUGAUGUUCGGGUUCUAGA [theeternabot_sameState_KL_Theo_A_1]	345	241	404	389	309
AUGACUCAAUAGUGAGUGAUGUUCACUGGACGAGGACCGGUACGGCCGCCACUCGAGAGUGGUGGACACUGUGUCACUGAGUCAU [Tryp A Ex t1]	180	166	154	194	496

Sequence	apparent KD of K4 kissing-loop reporter (input ligand: FMN 200 uM) [nM]	apparent KD of K4 kissing-loop reporter (input ligand: arginine 13.2 mM) [nM]	apparent KD of K4 kissing-loop reporter (input ligand: none) [nM]	apparent KD of K4 kissing-loop reporter [1] [nM]	apparent KD of K4 kissing-loop reporter [2] [nM]
AUGCGCGCGGCGGCCGCCACUCGCAUGAGAGUGAUGUUCUCGCCGUGCCCGCAAGGGUGCGGUGUGAGGACCGGGCCGGGCUGCG [#2 Same State - Tryptophan B Attempt #19 (HarryS)]	562	143	194	154	302
AUGCGCGUGCGAUGGAAAUCGCACGCGCAUCGAGGACCGGUACGGCCGCCACUCGCUCGCGCCGAGUGAUGUUCGGCCGGCGAAC [#2 SameState - Tryptophan_A Attempt #3 (HarryS)]	180	162	283	329	599
AUGUUGAGCGGAAGGAGCGGCUGAACCAGUGAUGUUGGUUAAUCCAAGUGAUGUUGGAAAAGCCAGGUAGGUCGCCGCUUUAUGU [Same State Arg B GF 2]	821	534	902	896	722
AUUAUAAAGGCGGCCGCCACUAGUGAUGUUAGUGACUAUAGUAUUAUCUAUAGAAUAAAAUAAAAUAGGACCGGGCCAAAAUAUU [AstrosExTryB#2]	535	411	525	493	464
AUUAUCAAUUUAUUAUAUAACUUUUCAGAAGGAGCGUGGAAGUACACAGGUAGGUCGCUGAAUAUAGGACUAGUGAUGUUAGUUA [JR_Nu_SSArginiA_Sub024]	236	221	266	298	248
AUUGCGGCCGUUCUAUCACCAGGCGGAGAUACCAGAUGCCAGCAGAUCCCUUGGCAGCUCUGCACGAGAUCCAGUGAUGUUGGGU [theeternabot_exclusion_KL_Theo_A_9]	319	239	320	288	276
AUUUAAUGUAUAGAUUAUAUACAUUAUUCAGAGGAUAUGCAUUGAAGCAGAAGGCUGGGUGUAGUGAUGUUGCAGUUUUAAUUUA [whbob_SS_FMNA__2th173]	150	254	152	224	122
AUUUGUUUAUGUGAUACCAGACUAAGCAGUGAUGUUGCUUUUAUUUUUGAAUUUUAAAUAGUCCCUUGGCAGCACUAUGUCUGUA [#05 K4 Theophylline B Same State]	96.4	147	135	161	94.2
AUUUUGGUUGAGAGUGAUGUUCCUUGUGUUCGAGGACCGGUACGGCCGCCACUCGGGUAGAAAAUAAAAGAAAUGUUUGAUUUUU [BDazzled - #11 SS Tryptophan A]	242	86.1	157	143	215
AUUUUUUACAGAAGGAGCGUGUUAUAAUAAUCAUAUUGCUUAGCGAGUGAUGUUCGCUUUACACAGGUAGGUCGCUGUUUAUUUA [JR_Nu_ExcArginiB_Sub029]	167	168	176	180	151
AUUUUUUUGUCAGGAUAUUAGUGUGGGUUUGGUUUGUUAGUGAUGUUGAUAUUUGUUUUAUGUAUUUAAGAAGGGAUUUAGCGGU [zzdxemullin]	556	330	431	443	285
CAAAUAAAUAUAAUUGAUAAGUGAUGUUGGCGAGGACCGGUACGGCCGCCACUCGAUAUCGGUCCAUUAACCGAGUGAUGUUUGG [Default title]	102	58.9	81.1	67.4	83.7
CAAUGAAUAUAAGAUGAUAUCAUAACAGAAGGAGCGAGUGAUAACUCAGGUAGGUCGCUGAAUUUAUCGAGUGAUGUUCGAUAAA [Same State Arginine A GF10]	208	158	197	176	183
CACCAUGAAUUCUCUAGGAGUGAUGUUUUUCGAGGACCGGUACGGCCGCCACUCGGACGAGGACCGUGGGAGCGGCGAAAAGACU [ghgmullin]	206	225	329	152	309
CACCCUAGUUCAGAUACCAGACUAGAGACAGUGAUGUUGUCACAUCCUAAAUUGGGUGUAGUCCCUUGGCAGCUGAGUAAUCUGC [Theo B/Ex/SS double]	600	635	724	596	540
